Source: patent WO2006033413A1 (dated 2006)
Values belong to the binder of their own block, whether it stands above or below them.

What was measured:
OC-1 peptide [1] = biological target: T1, OC-1 peptide (human); assay: competitive inhibition ELISA on OC peptide-BSA with free OC peptide (hybridoma screening)
T1 construct: Conjugated to BSA as the coating antigen in the screening ELISA; also called C-terminal 12 amino acid partial peptide of human osteocalcin
T1 peptide: FQEAYRRFYGPV

[2] = biological target: human osteocalcin (human) (UniProt P02818); assay: ELISA: 0.5 ug/mL KTM-219 on plate coated with 2 ug/mL human osteocalcin, peroxidase anti-mouse IgG detection (zero-competitor point of the competition ELISA)
OC-1 peptide [3] = biological target: T1, OC-1 peptide; assay: open sandwich ELISA: MBP-VL adsorbed on plate, VH-AP in solution, p-nitrophenyl phosphate, OD405

- binding result (OC-1 peptide [1]): binds
- absorbance (450 nm) without OC-1 peptide [2]: 2.28 absorbance
B1: mouse monoclonal antibody KTM-219 (antibody, IgG1, V domains shown)
VH: EVQLEESGAEFVKAGASVKLSCKTSGYTFNNYWIHWVKQSPGQGLEWIGEIDPSDGYSNYNQKFKGKATLTVDKSSSTAYMHLNSLTSEDSAVYYCTSSTSVGGSWGQGTTVTVSS
VL: DIELTQSPLSLPVSLGDQASISCTSSQSLLHSNGDTYLHWYLQKPGQSPKLLIYTLSNRFSGVPDRFSGSGSGTDFTLKISRVEAADLGIYFCSQTTHVPYTFGGGTKLEIKR
notes: Biotin-labelled when used as the detection antibody in the sandwich ELISA; also called anti-OC-1 peptide monoclonal antibody

- binding result (OC-1 peptide [3]): binds
B2: KTM-219 VH-AP fusion protein together with MBP-VL fusion protein (open sandwich pair) (other)
VH: B1 VH
VL: B1 VL
notes: Two separate purified periplasmic proteins; MBP-VL (about 56.5 kDa) is adsorbed on the plate and VH-AP (about 61.9 kDa) is added in solution; also called VH-alkaline phosphatase fusion protein; pET-VH219-AP product; not shown: E. coli alkaline phosphatase (1450 bp fragment of pPhoA); His tag; His-Myc tag
